One molecule from US20240083959A1 can be followed below.

The target of this experiment is T1, recombinant human LPHN2 lectin-olfactomedin-like-GAIN/GPS domain, residues F26-R796 (human), O95490.
T1 chain: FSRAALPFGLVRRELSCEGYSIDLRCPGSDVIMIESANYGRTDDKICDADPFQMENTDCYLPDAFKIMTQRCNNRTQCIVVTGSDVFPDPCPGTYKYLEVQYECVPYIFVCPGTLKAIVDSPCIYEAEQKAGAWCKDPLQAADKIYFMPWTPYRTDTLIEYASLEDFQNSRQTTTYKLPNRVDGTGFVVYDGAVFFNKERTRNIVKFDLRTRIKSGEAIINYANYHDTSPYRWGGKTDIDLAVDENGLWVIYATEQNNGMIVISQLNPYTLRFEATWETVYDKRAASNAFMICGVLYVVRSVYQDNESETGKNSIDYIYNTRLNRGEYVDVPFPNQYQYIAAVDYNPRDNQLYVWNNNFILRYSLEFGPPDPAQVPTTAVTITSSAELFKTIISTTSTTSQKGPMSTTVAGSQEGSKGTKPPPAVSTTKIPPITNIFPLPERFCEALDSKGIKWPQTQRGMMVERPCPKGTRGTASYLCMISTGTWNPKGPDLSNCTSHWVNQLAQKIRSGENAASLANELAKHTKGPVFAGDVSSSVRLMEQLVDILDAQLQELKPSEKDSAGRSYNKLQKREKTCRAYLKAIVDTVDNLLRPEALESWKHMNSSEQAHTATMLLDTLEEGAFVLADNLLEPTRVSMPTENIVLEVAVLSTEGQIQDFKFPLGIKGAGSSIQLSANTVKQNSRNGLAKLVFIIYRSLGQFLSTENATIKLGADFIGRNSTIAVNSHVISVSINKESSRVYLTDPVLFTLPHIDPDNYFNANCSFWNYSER
As to the kind of experiment: solid-phase binding (ELISA). The note with it: ligand; chains chain; N-linked glycans removed with PNGase F (sites N79, N186, N269, N325 on SEQ ID NO: 1); remark: other sources report otherwise.

B1: deglycosylated LRG1 (LRG1 treated with PNGase F), P02750 36-347 (protein)
chain: VTLSPKDCQVFRSDHGSSISCQPPAEIPGYLPADTVHLAVEFFNLTHLPANLLQGASKLQELHLSSNGLESLSPEFLRPVPQLRVLDLTRNALTGLPPGLFQASATLDTLVLKENQLEVLEVSWLHGLKALGHLDLSGNRLRKLPPGLLANFTLLRTLDLGENQLETLPPDLLRGPLQLERLHLEGNKLQVLGKDLLLPQPDLRYLFLNGNKLARVAAGAFQGLRQLDMLDLSNNSLASVPEGLWASLGQPNWDMRDGFDISGNPWICDQNLSDLYRWLQAQKDKMFSQNDTRCAGPEAVKGQTLLAVAKSQ
Consider B1, for which the Kd was found to be 840 nM.
